Data: publication PMC6159526

T1: HicB109-150 (C-terminal DNA-binding domain) (Streptococcus pneumoniae, UniProt A0A0H2URC7 109-150)
T1 chain: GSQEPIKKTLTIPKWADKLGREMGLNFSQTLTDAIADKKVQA

B1: hicBA promoter DNA, 28 bp (dsDNA)
DNA 1: TAATAGAATAATAAGTATCACTCCTTTA
DNA 2: TAAAGGAGTGATACTTATTATTCTATTA
B2: Pal-I (dsDNA)
DNA 1: TCTGTAACGTTCGATACAGA
DNA 2: TCTGTATCGAACGTTACAGA

Columns and labels:
HicB antitoxin [1] = molecular target: T2, HicB antitoxin (Streptococcus pneumoniae, UniProt A0A0H2URC7 1-150); test: ITC
[2] = molecular target: T1, HicB109-150 (C-terminal DNA-binding …); test: NMR titration
[3] = molecular target: T3, HicB antitoxin;HicA toxin (Streptococcus pneumoniae;Streptococcus …, UniProt A0A0H2URC7;A0A0H2URA5 1-150;1-68, |); test: ITC
[4] = molecular target: T3, HicB antitoxin;HicA toxin; test: EMSA
HicB antitoxin [5] = molecular target: T2, HicB antitoxin; test: EMSA

Binder	Kd (HicB antitoxin [1]) [µM]	Kd [2] [µM]	Kd [3] [µM]	binding result [4]	binding result (HicB antitoxin [5])
B1	8.8 ± 1.1	4.5 ± 1.1	4.2 ± 0.4		
B2				no binding	no binding
